Data on one substance can be found in publication doi:10.1101/2022.12.12.520143.

This experiment addresses GDP-L-galactose phosphorylase 1 (GGP1) with His6, expressed in E. coli (Solanum lycopersicum (tomato)).

The substance “PAS/LOV protein (PLP) with His6, expressed in tobacco (natural protein)” came in with an inhibition of GGP activity by PLP incubated 2 h in darkness before mixing of 86%.
